Paper PMC5045792

Legend:
[1] = target: ToxR-TM-MBP chimera with the transmembrane domain of the FtsI homolog annotated for S. pyogenes (S. pyogenes)
[2] = target: ToxR-TM-MBP chimera with the transmembrane domain of the FtsI homolog annotated for S. pneumoniae (S. pneumoniae); assay: TOXGREEN

Question: How did the GFP expression, percent of GpA [1] turn out when “ToxR-TM-MBP chimera with the transmembrane domain of the FtsI homolog annotated for S. pyogenes (domain or fragment)” was run?
Answer: > 100 % of GpA

Question: With “ToxR-TM-MBP chimera with the transmembrane domain of the FtsI homolog annotated for S. pneumoniae (domain or fragment)” as the substance, how does the GFP expression, percent of GpA [2] read?
Answer: > 100 % of GpA
